T1: Commercially purified human Syndecan (ectodomain)-4-Fc, P31431
T1 chain: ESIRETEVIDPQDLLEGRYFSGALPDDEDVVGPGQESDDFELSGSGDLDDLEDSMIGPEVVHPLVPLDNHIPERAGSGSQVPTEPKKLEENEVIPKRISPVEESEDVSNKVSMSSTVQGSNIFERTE

T2: Thy-1-Fc wild type (UniProt P01831 20-131)
T2 construct: In the functional rows m1 stands for Thy-1 on the surface of CAD neuronal cells; also called Thy-1(RLD)-Fc; CD90; source: purified; obtained as previously reported (Schneider, 2000; Leyton et al., 2001)
T2 sequence (looked up): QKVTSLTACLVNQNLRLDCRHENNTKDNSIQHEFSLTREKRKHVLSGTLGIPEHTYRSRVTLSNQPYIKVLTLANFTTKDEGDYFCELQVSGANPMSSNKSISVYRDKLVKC


What was measured:
[1] = molecular target: Commercially purified human Syndecan (ectodomain)-4-Fc (UniProt P31431); test: optical tweezers (miniTweezers) force-ramp adhesion frequency assay; details: loading rate 10 pN/s; Hepes buffer (10 mM Hepes, pH 7.4) containing 100 mM NaCl and 1 mM MgCl2 at 25°C; parent: est. 0.79; read off a plot
[2] = molecular target: T1, Commercially purified human Syndecan …; test: as above; details: chain shown with the change; loading rate 10 pN/s; Hepes buffer (10 mM Hepes, pH 7.4) containing 100 mM NaCl and 1 mM MgCl2 at 25°C; parent: est. 0.79; read off a plot
Thy-1-Fc wild type = molecular target: T2, Thy-1-Fc wild type; test: optical tweezers force spectroscopy (constant-force bond lifetime assay); miniTweezers; Thy-1-Fc on the 2.1 μm bead held by a micropipette; αVβ3-Fc, Syndecan-4-Fc or both on the 3.1 μm trapped bead (controls with TRAIL-R2-Fc added); constant forces 10, 20, 30, 40 and 50 pN; lifetimes fitted to the Bell model for values at zero force; 10 mM Hepes pH 7.4, 100 mM NaCl, 1 mM MgCl2, 25°C; details: both partners purified

bond lifetime at zero force (τ0) (Thy-1-Fc wild type) [s] | Molecule | also measured
 | Thy-1-Fc wild type (from UniProt P01831) AEAAA | other: adhesion frequency [1]: 0.4
 | Thy-1-Fc wild type, P01831 RLE (protein) QKVTSLTACLVNQNLRLECRHENNTKDNSIQHEFSLTREKRKHVLSGTLGIPEHTYRSRVTLSNQPYIKVLTLANFTTKDEGDYFCELQVSGANPMSSNKSISVYRDKLVKC | other: adhesion frequency [2]: 0.81
6.79 ± 1.49 | Recombinant αVβ3-Fc integrin (Fc fusion, integrin αV, ectodomain; integrin β3, ectodomain; Construct: Burgos-Bravo et al., 2018; also called αVβ3 integrin; source: HEK293T, transiently transfected, secreted into serum-free medium; purified as published (Burgos-Bravo et al., 2018) for optical tweezers; used as medium in the neurite retraction assay) chain 1: FNLDVDSPAEYSGPEGSYFGFAVDFFVPSASSRMFLLVGAPKANTTQPGIVEGGQVLKCDWSSTRRCQPIEFDATGNRDYAKDDPLEFKSHQWFGASVRSKQDKILACAPLYHWRTEMKQEREPVGTCFLQDGTKTVEYAPCRSQDIDADGQGFCQGGFSIDFTKADRVLLGGPGSFYWQGQLISDQVAEIVSKYDPNVYSIKYNNQLATRTAQAIFDDSYLGYSVAVGDFNGDGIDDFVSGVPRAARTLGMVYIYDGKNMSSLYNFTGEQMAAYFGFSVAATDINGDDYADVFIGAPLFMDRGSDGKLQEVGQVSVSLQRASGDFQTTKLNGFEVFARFGSAIAPLGDLDQDGFNDIAIAAPYGGEDKKGIVYIFNGRSTGLNAVPSQILEGQWAARSMPPSFGYSMKGATDIDKNGYPDLIVGAFGVDRAILYRARPVITVNAGLEVYPSILNQDNKTCSLPGTALKVSCFNVRFCLKADGKGVLPRKLNFQVELLLDKLKQKGAIRRALFLYSRSPSHSKNMTISRGGLMQCEELIAYLRDESEFRDKLTPITIFMEYRLDYRTAADTTGLQPILNQFTPANISRQAHILLDCGEDNVCKPKLEVSVDSDQKKIYIGDDNPLTLIVKAQNQGEGAYEAELIVSIPLQADFIGVVRNNEALARLSCAFKTENQTRQVVCDLGNPMKAGTQLLAGLRFSVHQQSEMDTSVKFDLQIQSSNLFDKVSPVVSHKVDLAVLAAVEIRGVSSPDHVFLPIPNWEHKENPETEEDVGPVVQHIYELRNNGPSSFSKAMLHLQWPYKYNNNTLLYILHYDIDGPMNCTSDMEINPLRIKISSLQTTEKNDTVAGQGERDHLITKRDLALSEGDIHTLGCGVAQCLKIVCQVGRLDRGKSAILYVKSLLWTETFMNKENQNHSYSLKSSASFNVIEFPYKNLPIEDITNSTLVTTNVTWGIQPAPMPV chain 2: GPNICTTRGVSSCQQCLAVSPMCAWCSDEALPLGSPRCDLKENLLKDNCAPESIEFPVSEARVLEDRPLSDKGSGDSSQVTQVSPQRIALRLRPDDSKNFSIQVRQVEDYPVDIYYLMDLSYSMKDDLWSIQNLGTKLATQMRKLTSNLRIGFGAFVDKPVSPYMYISPPEALENPCYDMKTTCLPMFGYKHVLTLTDQVTRFNEEVKKQSVSRNRDAPEGGFDAIMQATVCDEKIGWRNDASHLLVFTTDAKTHIALDGRLAGIVQPNDGQCHVGSDNHYSASTTMDYPSLGLMTEKLSQKNINLIFAVTENVVNLYQNYSELIPGTTVGVLSMDSSNVLQLIVDAYGKIRSKVELEVRDLPEELSLSFNATCLNNEVIPGLKSCMGLKIGDTVSFSIEAKVRGCPQEKEKSFTIKPVGFKDSLIVQVTFDCDCACQAQAEPNSHRCNNGNGTFECGVCRCGPGWLGSQCECSEEDYRPSQQDECSPREGQPVCSQRGECLCGQCVCHSSDFGKITGKYCECDDFSCVRYKGEMCSGHGQCSCGDCLCDSDWTGYYCNCTTRTDTCMSSNGLLCSGRGKCECGSCVCIQPGSYGDTCEKCPTCPDACTFKKECVECKKFDRGALHDENTCNRYCRDEIESVKELKDTGKDAVNCTYKNEDDCVVRFQYYEDSSGKSILYVVEEPECPKGPD | 
11.6 ± 1.34 | αVβ3-Fc + Syndecan-4-Fc (both on one bead) (complex, integrin αV, ectodomain, as in m5; integrin β3, ectodomain, as in m5; Syndecan-4, human, ectodomain, as in m6; Not a complex formed beforehand: m5 and m6 were put together on bead 2 and met Thy-1-Fc on bead 1; also called αVβ3 integrin + Syndecan-4; source: αVβ3-Fc: HEK293T, purified; Syndecan-4-Fc: commercially purified; both attached to one protein G-coated bead; copies: + +) chain 1: FNLDVDSPAEYSGPEGSYFGFAVDFFVPSASSRMFLLVGAPKANTTQPGIVEGGQVLKCDWSSTRRCQPIEFDATGNRDYAKDDPLEFKSHQWFGASVRSKQDKILACAPLYHWRTEMKQEREPVGTCFLQDGTKTVEYAPCRSQDIDADGQGFCQGGFSIDFTKADRVLLGGPGSFYWQGQLISDQVAEIVSKYDPNVYSIKYNNQLATRTAQAIFDDSYLGYSVAVGDFNGDGIDDFVSGVPRAARTLGMVYIYDGKNMSSLYNFTGEQMAAYFGFSVAATDINGDDYADVFIGAPLFMDRGSDGKLQEVGQVSVSLQRASGDFQTTKLNGFEVFARFGSAIAPLGDLDQDGFNDIAIAAPYGGEDKKGIVYIFNGRSTGLNAVPSQILEGQWAARSMPPSFGYSMKGATDIDKNGYPDLIVGAFGVDRAILYRARPVITVNAGLEVYPSILNQDNKTCSLPGTALKVSCFNVRFCLKADGKGVLPRKLNFQVELLLDKLKQKGAIRRALFLYSRSPSHSKNMTISRGGLMQCEELIAYLRDESEFRDKLTPITIFMEYRLDYRTAADTTGLQPILNQFTPANISRQAHILLDCGEDNVCKPKLEVSVDSDQKKIYIGDDNPLTLIVKAQNQGEGAYEAELIVSIPLQADFIGVVRNNEALARLSCAFKTENQTRQVVCDLGNPMKAGTQLLAGLRFSVHQQSEMDTSVKFDLQIQSSNLFDKVSPVVSHKVDLAVLAAVEIRGVSSPDHVFLPIPNWEHKENPETEEDVGPVVQHIYELRNNGPSSFSKAMLHLQWPYKYNNNTLLYILHYDIDGPMNCTSDMEINPLRIKISSLQTTEKNDTVAGQGERDHLITKRDLALSEGDIHTLGCGVAQCLKIVCQVGRLDRGKSAILYVKSLLWTETFMNKENQNHSYSLKSSASFNVIEFPYKNLPIEDITNSTLVTTNVTWGIQPAPMPV chain 2: GPNICTTRGVSSCQQCLAVSPMCAWCSDEALPLGSPRCDLKENLLKDNCAPESIEFPVSEARVLEDRPLSDKGSGDSSQVTQVSPQRIALRLRPDDSKNFSIQVRQVEDYPVDIYYLMDLSYSMKDDLWSIQNLGTKLATQMRKLTSNLRIGFGAFVDKPVSPYMYISPPEALENPCYDMKTTCLPMFGYKHVLTLTDQVTRFNEEVKKQSVSRNRDAPEGGFDAIMQATVCDEKIGWRNDASHLLVFTTDAKTHIALDGRLAGIVQPNDGQCHVGSDNHYSASTTMDYPSLGLMTEKLSQKNINLIFAVTENVVNLYQNYSELIPGTTVGVLSMDSSNVLQLIVDAYGKIRSKVELEVRDLPEELSLSFNATCLNNEVIPGLKSCMGLKIGDTVSFSIEAKVRGCPQEKEKSFTIKPVGFKDSLIVQVTFDCDCACQAQAEPNSHRCNNGNGTFECGVCRCGPGWLGSQCECSEEDYRPSQQDECSPREGQPVCSQRGECLCGQCVCHSSDFGKITGKYCECDDFSCVRYKGEMCSGHGQCSCGDCLCDSDWTGYYCNCTTRTDTCMSSNGLLCSGRGKCECGSCVCIQPGSYGDTCEKCPTCPDACTFKKECVECKKFDRGALHDENTCNRYCRDEIESVKELKDTGKDAVNCTYKNEDDCVVRFQYYEDSSGKSILYVVEEPECPKGPD chain 3: ESIRETEVIDPQDLLEGRYFSGALPDDEDVVGPGQESDDFELSGSGDLDDLEDSMIGPEVVHPLVPLDNHIPERAGSGSQVPTEPKKLEENEVIPKRISPVEESEDVSNKVSMSSTVQGSNIFERTE | 
3.06 ± 0.22 | Commercially purified human Syndecan (ectodomain)-4-Fc (Fc fusion, UniProt P31431 19-145, looked up, Syndecan-4, human, ectodomain; Heparan sulfate proteoglycan; also called Syndecan-4-Fc; Synd-4-Fc) ESIRETEVIDPQDLLEGRYFSGALPDDEDVVGPGQESDDFELSGSGDLDDLEDSMIGPEVVHPLVPLDNHIPERAGSGSQVPTEPKKLEENEVIPKRISPVEESEDVSNKVSMSSTVQGSNIFERTE | 
